Test results as given in patent US20160355553A1 (Janssen / Centocor, published 2016).

B1: CR9114 (antibody, V domains shown)
VH: QVQLVQSGAEVKKPGSSVKVSCKSSGGTSNNYAISWVRQAPGQGLDWMGGISPIFGSTAYAQKFQGRVTISADIFSNTAYMELNSLTSEDTAVYFCARHGNYYYYSGMDVWGQGTTVTVSS
VL: SYVLTQPPAVSGTPGQRVTISCSGSDSNIGRRSVNWYQQFPGTAPKLLIYSNDQRPSVVPDRFSGSKSGTSASLAISGLQSEDEAEYYCAAWDDSLKGAVFGGGTQLTVL
B2: CR8057 (antibody, V domains shown)
VH: EVQLVESGGGLVQPGGSLRLSCAASGFTDSVIFMSWVRQAPGKGLECVSIIYIDDSTYYADSVKGRFTISRHNSMGTVFLEMNSLRPDDTAVYYCATESGDFGDQTGPYHYYAMDV
VL: QSALTQPASVSGSPGQSITISCTGSSGDIGGYNAVSWYQHHPGKAPKLMIYEVTSRPSGVSDRFSASRSGDTASLTVSGLQAEDEAHYYCCSFADSNILI

Tests used:
[1] = target: hemagglutinin of influenza virus A/Brisbane/10/2007 (H3) (influenza A virus H3); assay: cell-based or functional assay
[2] = target: hemagglutinin of influenza virus A/Brisbane/59/2007 (H1) (influenza A virus H1N1, UniProt B4URD6 18-565); assay: cell-based or functional assay
[3] = target: hemagglutinin of influenza virus A/Hiroshima/52/2005 (H3) (influenza A virus H3); assay: cell-based or functional assay
[4] = target: hemagglutinin of influenza virus A/Panama/2007/1999 (H3) (influenza A virus H3); assay: cell-based or functional assay
[5] = target: hemagglutinin of influenza virus A/Chick/Germany/N/49 (H10) (influenza A virus H10); assay: cell-based or functional assay
[6] = target: hemagglutinin of influenza virus A/Hong Kong/1073/99 (H9) (influenza A virus H9); assay: cell-based or functional assay
H3 Mini-HA cluster 1+3 = H3 Mini-HA cluster 1+3 (influenza A virus H3N2, UniProt O11283 17-566); assay: FACS on HEK293F [D00010 FIG. 8B]
H3 Mini-HA cluster 1+6 = H3 Mini-HA cluster 1+6 (influenza A virus H3N2, UniProt O11283 17-566); assay: FACS on HEK293F [D00010 FIG. 8B]
H3 Mini-HA cluster 1+7 = H3 Mini-HA cluster 1+7 (influenza A virus H3N2, UniProt O11283 17-566); assay: FACS on HEK293F [D00010 FIG. 8B]
H3 Mini-HA cluster 1+8 = H3 Mini-HA cluster 1+8 (influenza A virus H3N2, UniProt O11283 17-566); assay: FACS on HEK293F [D00010 FIG. 8B]
H3 Mini-HA cluster 1 = H3 Mini-HA cluster 1 (influenza A virus H3N2, UniProt O11283 17-566); assay: FACS on HEK293F [D00010 FIG. 8B]
H3 Mini-HA cluster 1+4 = H3 Mini-HA cluster 1+4 (influenza A virus H3N2, UniProt O11283 17-566); assay: FACS on HEK293F [D00010 FIG. 8B]
H3 Mini-HA cluster 1+2 = H3 Mini-HA cluster 1+2 (influenza A virus H3N2, UniProt O11283 17-566); assay: FACS on HEK293F [D00010 FIG. 8B]
[7] = target: H3-mini2-cl9+10+11+12-GCN4 (influenza A virus H3N2, UniProt O11283 17-566); assay: FACS on HEK293F [D00012 FIG. 9B]
H3-mini2-cl9+10 = H3-mini2-cl9+10 (influenza A virus H3N2, UniProt O11283 17-566); assay: FACS on HEK293F [D00012 FIG. 9B]
H3-mini2-cl9+10+11+13 = H3-mini2-cl9+10+11+13 (influenza A virus H3N2, UniProt O11283 17-566); assay: FACS on HEK293F [D00012 FIG. 9B]
H3-mini2-cl9+10+11-tri = H3-mini2-cl9+10+11-tri (influenza A virus H3N2); assay: FACS on HEK293F [D00012 FIG. 9B]
H3-mini2-cl9+10+11 = H3-mini2-cl9+10+11 (influenza A virus H3N2, UniProt O11283 17-566); assay: FACS on HEK293F [D00012 FIG. 9B]
H3-mini2-cl9+11 = H3-mini2-cl9+11 (influenza A virus H3N2, UniProt O11283 17-566); assay: FACS on HEK293F [D00012 FIG. 9B]
H3-mini4-cl9+10+11+12+14 = H3-mini4-cl9+10+11+12+14 (influenza A virus H3N2, UniProt O11283 17-566); assay: FACS on HEK293F [D00012 FIG. 9B]
H3-mini2 = H3-mini2 (influenza A virus H3N2, UniProt O11283 17-566); assay: FACS on HEK293F [D00012 FIG. 9B]
[8] = target: H3-mini2-cl9+10+11+12-tri (influenza A virus H3N2, UniProt O11283 17-566); assay: FACS on HEK293F [D00012 FIG. 9B]
H3-mini2-cl9+10+12 = H3-mini2-cl9+10+12 (influenza A virus H3N2, UniProt O11283 17-566); assay: FACS on HEK293F [D00012 FIG. 9B]
H3-mini2-cl9+10+11+12 = H3-mini2-cl9+10+11+12 (influenza A virus H3N2, UniProt O11283 17-566); assay: FACS on HEK293F [D00012 FIG. 9B]
H3-mini3-cl9+10+11+12+14 = H3-mini3-cl9+10+11+12+14 (influenza A virus H3N2, UniProt O11283 17-566); assay: FACS on HEK293F [D00012 FIG. 9B]
H3mini2-cl9+10+11-GCN4 = H3mini2-cl9+10+11-GCN4 (influenza A virus H3N2); assay: FACS on HEK293F [D00012 FIG. 9B]
[9] = target: H3-mini2-cl9+10+11+13-GCN4 (influenza A virus H3N2); assay: FACS on HEK293F [D00012 FIG. 9B]
H3-mini2-cl9+13 = H3-mini2-cl9+13 (influenza A virus H3N2, UniProt O11283 17-566); assay: FACS on HEK293F [D00012 FIG. 9B]
[10] = target: H3-mini2-cl9+10+11+13-tri (influenza A virus H3N2); assay: FACS on HEK293F [D00012 FIG. 9B]

| Binder | binding result (H3 Mini-HA cluster 1+3) | binding result (H3 Mini-HA cluster 1+6) | binding result (H3 Mini-HA cluster 1+7) | binding result (H3 Mini-HA cluster 1+8) | binding result (H3 Mini-HA cluster 1) | binding result (H3 Mini-HA cluster 1+4) | binding result (H3 Mini-HA cluster 1+2) | binding result [7] | binding result (H3-mini2-cl9+10) | binding result (H3-mini2-cl9+10+11+13) | binding result (H3-mini2-cl9+10+11-tri) | binding result (H3-mini2-cl9+10+11) | binding result (H3-mini2-cl9+11) | binding result (H3-mini4-cl9+10+11+12+14) | binding result (H3-mini2) | binding result [8] | binding result (H3-mini2-cl9+10+12) | binding result (H3-mini2-cl9+10+11+12) | binding result (H3-mini3-cl9+10+11+12+14) | binding result (H3mini2-cl9+10+11-GCN4) | also measured |
| --- | --- | --- | --- | --- | --- | --- | --- | --- | --- | --- | --- | --- | --- | --- | --- | --- | --- | --- | --- | --- | --- |
| B1 | no binding (tested: 5 ug/ml) | no binding (tested: 5 ug/ml) | no binding (tested: 5 ug/ml) | no binding (tested: 5 ug/ml) | no binding (tested: 5 ug/ml) | no binding (tested: 5 ug/ml) | no binding (tested: 5 ug/ml) | no binding (tested: 5 ug/ml) | no binding (tested: 5 ug/ml) | no binding (tested: 5 ug/ml) | no binding (tested: 5 ug/ml) | no binding (tested: 5 ug/ml) | no binding (tested: 5 ug/ml) | no binding (tested: 5 ug/ml) | no binding (tested: 5 ug/ml) | no binding (tested: 5 ug/ml) | no binding (tested: 5 ug/ml) | no binding (tested: 5 ug/ml) | no binding (tested: 5 ug/ml) | no binding (tested: 5 ug/ml) | virus neutralization assay on MDCK cells, geomean IC50 [1]: 5.6 µg/mL; virus neutralization assay on MDCK cells, geomean IC50 [2]: 2.6 µg/mL; virus neutralization assay on MDCK cells, geomean IC50 [3]: 12.5 µg/mL; virus neutralization assay on MDCK cells, geomean IC50 [4]: 39.9 µg/mL; virus neutralization assay on MDCK cells, geomean IC50 [5]: 15.7 µg/mL; virus neutralization assay on MDCK cells, geomean IC50 [6]: 4.4 µg/mL; binding result [9]: no binding (tested: 5 ug/ml); binding result (H3-mini2-cl9+13): no binding (tested: 5 ug/ml); binding result [10]: no binding (tested: 5 ug/ml) |
| B2 | no binding (tested: 5 ug/ml) | no binding (tested: 5 ug/ml) | no binding (tested: 5 ug/ml) | no binding (tested: 5 ug/ml) | no binding (tested: 5 ug/ml) | no binding (tested: 5 ug/ml) | no binding (tested: 5 ug/ml) | no binding (tested: 5 ug/ml) | no binding (tested: 5 ug/ml) | no binding (tested: 5 ug/ml) | no binding (tested: 5 ug/ml) | no binding (tested: 5 ug/ml) | no binding (tested: 5 ug/ml) | no binding (tested: 5 ug/ml) | no binding (tested: 5 ug/ml) | no binding (tested: 5 ug/ml) | no binding (tested: 5 ug/ml) | no binding (tested: 5 ug/ml) | no binding (tested: 5 ug/ml) | no binding (tested: 5 ug/ml) | binding result [9]: no binding (tested: 5 ug/ml); binding result (H3-mini2-cl9+13): no binding (tested: 5 ug/ml); binding result [10]: no binding (tested: 5 ug/ml) |
